Assay [1] relates to SJSA-1 (an osteosarcoma model) xenografts. Put plainly: Xenograft efficacy study in mice. It is filed as in vivo. The settings on record: SJSA-1 xenografts, MEDI-573 alone. The text has this: (§1) Although proliferation of SK-ES-1 and SJCRH30 cells was inhibited by MEDI-573 in vitro in the absence of exogenous IGFs, the in vivo growth of these two models was not effected by MEDI-573 treatment.
(§2) For in vivo efficacy studies, five million sarcoma cells in 50% matrigel were inoculated subcutaneously into each female athymic nude mice. When tumors reach approximately 150-200 mm^3, mice were randomly assigned into groups (10 mice per group). MEDI-573 was administrated intraperitoneally twice per week at indicated doses. The dose regimen for AZD2014 was oral once every day, for rapamycin was intraperitoneal injection every 3 days. Tumor volumes were measured twice weekly with calipers. Tumor growth inhibition was calculated on the last day of study relative to the initial and final mean tumor volume of the control group.

For another assay, the system named is SJCRH30. Put plainly: Xenograft efficacy study in mice. It is filed as in vivo. The settings on record: SJCRH30 model.
From the text: as §1, §2

For the next assay, the system named is KHOS xenograft model. Put plainly: Xenograft efficacy study in mice. It counts as in vivo. Conditions: KHOS xenografts, MEDI-573 alone.
From the text: as §1, §2

The next assay concerns SK-ES-1. Put plainly: Xenograft efficacy study in mice. It counts as in vivo. The settings on record: SK-ES-1 model.
From the text: as §1, §2

For another assay, the system named is TC-71 cells. Kind of assay: Activation of caspase-3 and caspase-7. It counts as cell-based. Conditions: increasing concentrations, 48 hours, compared to isotype control. As to the method: (§3) To evaluate the basis for the cytotoxic effect of MEDI-573 on RD-ES, TC-71, SJSA-1, and KHOS cells, cells were treated with increasing concentrations of MEDI-573 for 48 hours and analyzed by measuring the activation of caspase-3 and caspase-7. […] (Data not shown.)

A further assay deals with RD-ES cells. Put plainly: Activation of caspase-3 and caspase-7. It is filed as cell-based. Conditions: increasing concentrations, 48 hours, compared to isotype control. The method, then: as §3
For assay [2], the system named is SJSA-1 cells. Kind of assay: Activation of caspase-3 and caspase-7. It counts as cell-based. The settings on record: increasing concentrations, 48 hours, compared to isotype control. The method, then:
as §3

Assay [3] has as its system KHOS cells. Kind of assay: Activation of caspase-3 and caspase-7. It is filed as cell-based. Conditions: increasing concentrations, 48 hours. As to the method:
as §3

In assay [4] the test system is SJSA-1 cells. Put plainly: IGF-induced proliferation (CTG). It counts as cell-based. As to the method: (§4) To access the effect of MEDI-573 on IGF-Induced proliferation, MEDI-573 or isotype control, was added to the cells for 30 minutes at 37° C. IGF-1 or IGF-2 was then added to the appropriate wells and incubated for 3 days. Proliferation was quantified using the CTG reagent.

Another assay relates to RD cells. Put plainly: IGF-induced proliferation (CTG). It is filed as cell-based. As to the method: as §4
In assay [5] the test system is KHOS cells. Kind of assay: IGF-induced proliferation (CTG). It is filed as cell-based. The method, then:
as §4

B1: MEDI-573: fully human monoclonal IgG2 lambda antibody that binds IGF-2 with cross reactivity to IGF-1; hybridoma 7.159.2, ATCC PTA-7424 (antibody)
heavy: QVQLVQSGAEVKKPGASVKVSCKASGYTFTSYDINWVRQATGQGLEWMGWMNPNSGNTGYAQKFQGRVTMTRNTSISTAYMELSSLRSEDTAVYYCARDPYYYYYGMDVWGQGTTVTVSSASTKGPSVFPLAPCSRSTSESTAALGCLVKDYFPEPVTVSWNSGALTSGVHTFPAVLQSSGLYSLSSVVTVPSSNFGTQTYTCNVDHKPSNTKVDKTVERKCCVECPPCPAPPVAGPSVFLFPPKPKDTLMISRTPEVTCVVVDVSHEDPEVQFNWYVDGVEVHNAKTKPREEQFNSTFRVVSVLTVVHQDWLNGKEYKCKVSNKGLPAPIEKTISKTKGQPREPQVYTLPPSREEMTKNQVSLTCLVKGFYPSDIAVEWESNGQPENNYKTTPPMLDSDGSFFLYSKLTVDKSRWQQGNVFSCSVMHEALHNHYTQKSLSLSPGK
light: QSVLTQPPSVSAAPGQKVTISCSGSSSNIENNHVSWYQQLPGTAPKLLIYDNNKRPSGIPDRFSGSKSGTSATLGITGLQTGDEADYYCETWDTSLSAGRVFGGGTKLTVLGQPKAAPSVTLFPPSSEELQANKATLVCLISDFYPGAVTVAWKADSSPVKAGVETTTPSKQSNNKYAASSYLSLTPEQWKSHRSYSCQVTHEGSTVEKTVAPTECS
With B1, in [1], the tumor growth inhibition result is listed as “Comparable results”. For the same molecule, the in vivo growth result in the assay with SJCRH30 and with SK-ES-1 was “not effected” each time. Moreover, the response in vivo result in the assay on KHOS xenograft model was “did not respond”. The caspase-3/-7 activities entry in the assay with TC-71 cells is reported as “increased caspase-3/-7 activities in a dose-dependent manner”; in the assay on RD-ES cells, “increased caspase-3/-7 activities in a dose-dependent manner”; in the assay with SJSA-1 cells [2] it was “increased caspase-3/-7 activities in a dose-dependent manner”; in the assay on KHOS cells [3] it was “No activation of caspase-3/-7 was detected”. The “IGF-1 IC50 (μM)” value in the assay with SJSA-1 cells [4] (SJSA-1 cells stimulated with IGF-1), in the assay on RD cells (RD cells stimulated with IGF-1) and with KHOS cells [5] (KHOS cells stimulated with IGF-1) was “No Induction” throughout. In addition, the “IGF-2 IC50 (μM)” value in the assay with SJSA-1 cells [4] (SJSA-1 cells stimulated with IGF-2), in the assay with RD cells (RD cells stimulated with IGF-2) and in the assay with KHOS cells [5] (KHOS cells stimulated with IGF-2) was “No Induction” each time. The effect on growth entry in the assay on RD cells (RD cells, with or without IGF stimulation) is recorded as “failed to have any significant effect”; in the assay on KHOS cells [5] (KHOS cells, with or without IGF stimulation) it was “failed to have any significant effect”.

(Values after patent US20160324962A1, “COMPOSITIONS AND METHODS FOR TREATING SARCOMA” (MEDIMMUNE, LLC, priority 2013, published 2016).)
